The target in the data set is YTHDC1 YTH domain (UniProt Q96MU7 345-509). As to the kind of experiment: MST.

In article PMC6684389 one finds Kd data, which are given here for two molecules.

As to AAAGGACGUGG (ssRNA) [probe 2], the Kd is 16.9 µM.
With AAAGGACGUGG (ssRNA, m6A at position 6) [probe 1] the figure was 0.39 µM.
